B1: OR4K15 (parent)
chain: GUUAACGGUCAUAGGCCAUGGAAACUAGGAGCACCAUUUCGCUGCCAGUGAAGAAAUGAACAAAGAAAAUCUGGGCCAGGCAGGCAUCAAAAGAAAUAGUCUUGCGCUCAACCAGAAAGUCUGUAAUCAUUUUAAGGGUA

This is an account of results in the RNAGym collection of RNA variant scans (doi:10.7554/elife.90254).

In the series the parent is B1. The series can be described thus: self-cleavage, relative activity (ratio to wild type); higher = more cleavage; in vitro, sequencing; the parent is a self-cleaving ribozyme.
GUUAACGGUCAUAGGCCAUGGAAACUAGGAGCACCAUUUCGCUGCCAGUGAAGAAAUGAACAAAGAAAAUCUGGGCCAAGCAGGCAUCAAAAGAAAUGGUCUUGCGCUCAACCAGAAAGUCUGUAAUCAUUUUAAGGGUA [G79A A98G]: the self-cleavage is 0.03.

For GUUAACGGUCAUAGGCCAUGGAAACUAGGAGCACCAUUUCGCUGCCAGUGAAGAAAUGAACAAAGAAAAUCUGGGCCAAGCAGGCAUCAAAAGAAAUUGUCUUGCGCUCAACCAGAAAGUCUGUAAUCAUUUUAAGGGUA [G79A A98U], the self-cleavage worked out at 0.13. With GUUAACGGUCAUAGGCCAUGGAAACUAGGAGCACCAUUUCGCUGCCAGUGAAGAAAUGAACAAAGAAAAUCUGGGCCUGGCAGGCAUCAAAAGAAAUAGUCUUGCGCUCAACCAGAAAGUCUGUAAUCAUUCUAAGGGUA [A78U U132C], the self-cleavage came to 0.48. Under GUUAACGGUCAUAGGCCAUGGAAACUAGGAGCACCAUUUCGCUGCCAGUGAAGAAAUGAACAAAGAAAAUCUGGGCCAAGCAGGCAUCAACAGAAAUAGUCUUGCGCUCAACCAGAAAGUCUGUAAUCAUUUUAAGGGUA [G79A A91C] stands 0.09; under GUUAACGGUCAUAGGCCAUGGAAACUAGGAGCACCAUUUCGCUGCCAGUGAAGAAAUGAACAAAGAAAAUCUGGGCCUGGCAGGCAUCAAAAGAAAUAGUCUUGCGCUCAACCAGAAAGUCUGUAAUCAUUUCAAGGGUA [A78U U133C], 0.37. GUUAACGGUCAUAGGCCAUGGAAACUAGGAGCACCAUUUCGCUGCCAGUGAAGAAAUGAACAAAGAAAAUCUGGGCCUGGCAGGCAUCAAAAGAAAUAGUCUUGCGCCCAACCAGAAAGUCUGUAAUCAUUUUAAGGGUA [A78U U108C]: the self-cleavage is 0.01.

For the variant GUUAACGGUCAUAGGCCAUGGAAACUAGGAGCACCAUUUCGCUGCCAGUGAAGAAAUGAACAAAGAAAAUCUGGGCCUGGCAGGCAUCAAAAGAAAUAGUCAUGCGCUCAACCAGAAAGUCUGUAAUCAUUUUAAGGGUA [A78U U102A], the self-cleavage was found to be 0.16. With GUUAACGGUCAUAGGCCAUGGAAACUAGGAGCACCAUUUCGCUGCCAGUGAAGAAAUGAACAAAGAAAAUCUGGGCCUGGCAGGCAUCAAAAGAAAUAGUCUUGCGCUCAACCAGAAAGUCUGUAACCAUUUUAAGGGUA [A78U U127C], the self-cleavage amounted to 0.07. As for GUUAACGGUCAUAGGCCAUGGAAACUAGGAGCACCAUUUCGCUGCCAGUGAAGAAAUGAACAAAGAAAAUCUGGGCCUGGCAGGCAGCAAAAGAAAUAGUCUUGCGCUCAACCAGAAAGUCUGUAAUCAUUUUAAGGGUA [A78U U87G], the self-cleavage was 0.09.

Consider GUUAACGGUCAUAGGCCAUGGAAACUAGGAGCACCAUUUCGCUGCCAGUGAAGAAAUGAACAAAGAAAAUCUGGGCCUGGCAGGCAUCAAAAGAAAUAGCCUUGCGCUCAACCAGAAAGUCUGUAAUCAUUUUAAGGGUA [A78U U100C], for which the self-cleavage is 1.1.

As to GUUAACGGUCAUAGGCCAUGGAAACUAGGAGCACCAUUUCGCUGCCAGUGAAGAAAUGAACAAAGAAAAUCUGGGCCUGGCAGGCAUCAAAAGAAAUAGUCUUGCGCUCAACCAGAAAGUCUGUAAUCAUAUUAAGGGUA [A78U U131A], the self-cleavage came to 0.18. Regarding GUUAACGGUCAUAGGCCAUGGAAACUAGGAGCACCAUUUCGCUGCCAGUGAAGAAAUGAACAAAGAAAAUCUGGGCCUGGCAGGCAUCAAAAGAAAUAGUCUUGCGCUCAACCAGAAAGGCUGUAAUCAUUUUAAGGGUA [A78U U120G], the self-cleavage stood at 0.37.

As for GUUAACGGUCAUAGGCCAUGGAAACUAGGAGCACCAUUUCGCUGCCAGUGAAGAAAUGAACAAAGAAAAUCUGGGCCUGGCAGGCAUCAAAAGAAAUAGUCUUGCGCUCAACCAGAAAGCCUGUAAUCAUUUUAAGGGUA [A78U U120C], the self-cleavage was found to be 0.12. In the case of GUUAACGGUCAUAGGCCAUGGAAACUAGGAGCACCAUUUCGCUGCCAGUGAAGAAAUGAACAAAGAAAAUCUGGGCCAAGCAGGCUUCAAAAGAAAUAGUCUUGCGCUCAACCAGAAAGUCUGUAAUCAUUUUAAGGGUA [G79A A86U], the self-cleavage is 0.09. On to GUUAACGGUCAUAGGCCAUGGAAACUAGGAGCACCAUUUCGCUGCCAGUGAAGAAAUGAACAAAGAAAAUCUGGGCCAAGCAGGCGUCAAAAGAAAUAGUCUUGCGCUCAACCAGAAAGUCUGUAAUCAUUUUAAGGGUA [G79A A86G], for which the self-cleavage stood at 0.22. Regarding GUUAACGGUCAUAGGCCAUGGAAACUAGGAGCACCAUUUCGCUGCCAGUGAAGAAAUGAACAAAGAAAAUCUGGGCCAAGCAGGCAUCAAAAGAAAUAGUCUUGCGCUCAACCAGAAAGUCUGUAAUCAUUUUGAGGGUA [G79A A134G], the self-cleavage was 0.09.

Take GUUAACGGUCAUAGGCCAUGGAAACUAGGAGCACCAUUUCGCUGCCAGUGAAGAAAUGAACAAAGAAAAUCUGGGCCUGGCAGGCAUCAAAAGAAAUAGUCUUGCGCUCAACCAGAAAGUCUGCAAUCAUUUUAAGGGUA [A78U U124C]: the self-cleavage was found to be 0.26. In the case of GUUAACGGUCAUAGGCCAUGGAAACUAGGAGCACCAUUUCGCUGCCAGUGAAGAAAUGAACAAAGAAAAUCUGGGCCAAGCAGGCAUCAAAAGAAAUAGUCUUGCGCUCAACCAGAGAGUCUGUAAUCAUUUUAAGGGUA [G79A A117G], the self-cleavage worked out at 0.09. With GUUAACGGUCAUAGGCCAUGGAAACUAGGAGCACCAUUUCGCUGCCAGUGAAGAAAUGAACAAAGAAAAUCUGGGCCAAGCAGGCAUCAAAAGGAAUAGUCUUGCGCUCAACCAGAAAGUCUGUAAUCAUUUUAAGGGUA [G79A A94G], the self-cleavage is 0.15. As for GUUAACGGUCAUAGGCCAUGGAAACUAGGAGCACCAUUUCGCUGCCAGUGAAGAAAUGAACAAAGAAAAUCUGGGCCUGGCAGGCAUCAAAAGAAAUAGUCUUGCGCUCAACCAGAAAGUCAGUAAUCAUUUUAAGGGUA [A78U U122A], the self-cleavage came to 0.31. On to GUUAACGGUCAUAGGCCAUGGAAACUAGGAGCACCAUUUCGCUGCCAGUGAAGAAAUGAACAAAGAAAAUCUGGGCCUGGCAGGCAUCAAAAGAAAUAGUCUUGCGCUCAACCAGAAAGUCCGUAAUCAUUUUAAGGGUA [A78U U122C], for which the self-cleavage was 0.14.
